Experimental findings from the RNAGym collection of RNA variant scans (doi:10.1073/pnas.2313332121) are described below.

B1: TPR 5TU (parent)
chain: GGAUCUUCUCGAUCUAACAAAAAAGACAAAUCUGCCACAAAGCUUGAGAGCAUCUUCGGAUGCAGAGGCGGCAGCCUUCGGUGGCGCGAUAGCGCCAACGUUCUCAACUAUGACACGCAAAACGCGUGCUCCGUUGAAUGGAGUUUAUCAUG

This sample holds only a part of the variants without activity. Where only a bound is given, the exact number is not on record here.

In this data set the parent is B1. Nature of the data set: polymerase ribozyme fitness, log enrichment relative to wild type (log ratio); higher = more active; in vitro selection for triplet polymerase activity. The method, boiled down:
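Mutant libraries for each subunit of a heterodimeric triplet polymerase ribozyme were made by PCR and then transcribed. Each library underwent one round of in vitro selection in triplicate: annealing with a biotinylated primer, the partner subunit and triplets, frozen incubation at −7 °C, gel excision of extended constructs, streptavidin-bead capture and RT-PCR. Input and output libraries were Illumina-sequenced, and only genotypes with ≥10 input reads and ≥1 read per output were kept. Fitness is the logarithm, base 2, of genotype enrichment over wild-type enrichment, computed from inverse-variance-weighted replicate averages.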
Take GGAUCUUCUCGAUCUAACAAAAAAGACAAAUCUGCCACAAAACUUGAGAGCCUAUCCGGAUGCAGAGGCGGCAGCCUUCGGUGGCGCGAUAGCCCCAACGUUCUCAACUAUGACACGCAAAACGCGUGCUCCGUUGAAUGGAGUUUAUCAUG: the “polymerase ribozyme fitness (log ratio)” value is at most -4.2.
Take GGAUCUUCUCGAUCUAACAAAAAAGACAAAUCUGCCACAAAACUUGAGAGCAUCUUCGAAUGCAGAGGCGGCAGCCUUCGGUGGCGCGAUAGCGCCAACGUUCUCAACUAUGACACGCAAAACGCGUGCUCCGUUGAAUGGAGUUUAUCAUG: the “polymerase ribozyme fitness (log ratio)” value was -4.11.
For the variant GGAUCUUCUCGAUCUAACAAAAAAGACAAAUCUGCCACAAAACUUGAGAGCAUCUUCGCAUGCAGAGGCGGCAGCCUUCGGUGGCGCGAUAGCGCCAACGUUCUCAACUAUGACACGCAAAACGGGUGCUCCGUUGAAUGGAGUUUAUCAUG, the “polymerase ribozyme fitness (log ratio)” value was at most -4.2.
The result for GGAUCUUCUCGAUCUAACAAAAAAGACAAAUCUGCCACAAAACUUGAGAGCAUCUUCGAAUGCAGAGGCGGCAGCCUUCGGUGGCGCGAUAGCGCCAACGUGCUCAACUAUGACACGCAAAACGCGUGCUCCGUUGAAUGGAGUUUAUCAUG reads at most -4.2; that for GGAUCUUCUCGAUCUAACAAAAAAGACAAAUCUGCCACAAAACUUGAGAGCAUCUUCGGAUGCAGAGGCGGCAGCCUUGGGUGGCGCGAUAGCGCCAACGUUCUCAACUAUGACACGCAAAACGCGUGCUCCGUUGAAUGGAGCUUAUCAUG, at most -4.2; that for GGAUCUUCUCGAUCUAACAAAAAAGACAAAUCUGCCACAAAACUUGAGAGCAUCUUCGGAUGCAGAGGCGGCAGCCUUCGGUGGCGCGAUAGCGCCAACGUUCUCAACUAUGACAGGCAAAACGCGUGCUCCGUUGAAUGGAGUUUAUCUUG, at most -4.2.
With GGAUCUUCUCGAUCUAACAAAAAAGACAAAUCUGCCACAAAACUUGAGAGCAUCUUCGUAUGCAGAGGCGGCAGCUUUCGGUGGCGCUAUAGCGCCAACGUUGUCAACUAUGACACGCAAAACGCGUGCUCCGUUGAAUGGAGUUUAUCAUU the figure was at most -4.2; with GGAUCUUCUCGAUCUAACAAAAAAGACAAAUCUGCCACAAAACUUGAGAUCAACAUCGGAUGCAGAGGCGGCAGCCUUCGGUAGCGCGACAGCGCCAACGUUCUCAACUAUGACACGCAAAACGCGUGCUCCGUUGAAUGGAGAUUAUCAUG, at most -4.2.
With GGAUCUUCUCGAUCUAACAAAAAAGACAAAUCUGCCACAAAACUUGAGAGCAUCUUCGGAUGCAGAGGCGGCAGCCUUCGGUGGUGCGAUAGCGCCAACGUUCUCAACUAUGACACGCAAAACGCGUGCUCCGUUGAAUGGAGUUUAUCAUG the figure was at most -4.2.
Take GGAUCUUCUCGAUCUAACAAAAAAGACAAAUCUGCCACAAAACUUGAUAGCUUCUUCGGAUGCAGAGGCGGCAGACUUCGGUGGCGCGACAGCGCCAACGUUCUCAACUAUGACACGCAAAACGCGUGCUCCGUUGAAUGGAGUUUAUCAUG: the “polymerase ribozyme fitness (log ratio)” value is at most -4.2.
The result for GGAUCUUCUCGAUCUAACAAAAAAGACAAAUCUGCCACAAAACUUGAGAGCAUCUUCAGAUGCAGAGGCGGCAGCCUUCGGUGGCGCGAUAGCGCCAACCUUCUCAACUAUGACACGCAAAACGCGUGCUCCGUUGAAUGGAGUUUAUCAUG reads at most -4.2.
The result for GGAUCUUCUCGAUCUAACAAAAAAGACAAAUCUGCCACAAAACUUGAGAGCAUCUUCGGGUGCAGAGGCGGCAGCCUUCGGUGGCGGGAUAGCGCCAACGUUCUCAACUAUGACACGCAAAACGCGUGCUCCGUUGAAUGGAGUUUAUCAUG reads at most -4.2.
With GGAUCUUCUCGAUCUAACAAAAAAGACAAAUCUGCCACAAAACUUGAGAGCAUCUUCGGAUGCAGAGGCGGCAGCCUUCGGUGGCGCGGUAGUGCCAACGUUCUCAACUAUGACACGCAAAACGUGUGCUCCGUUGAAUGUAGUUUAUCAUG, the “polymerase ribozyme fitness (log ratio)” value is at most -4.2.
With GGAUCUUCUCGAUCUAACAAAAAAGACAAAUCUGCCACAAAACUUGAGCGCAUUUUCGGAUGCAGAGGCGGCAGCCUUCGGUGGCGCGAUAGCGUCAACGUUCUCAACUAUGACACGUAAAACGCGUGCUCCGUUGAAUGGAGUUUAUCAUG the figure was at most -4.2; with GGAUCUUCUCGAUCUAACAAAAAAGACAAAUCUGCCACAAAACUUGAGAGCAUCUUCGAAUGCAGCGGCGGCUGCCUACGGUGGCGGGAUAGCGCCAACGUUCUCAACUAUGACACGCAAAACGCGUGCUCCGUUGAAUGGAGUUGAUAAUG, at most -4.2; with GGAUCUUCUCGAUCUAACAAAAAAGACAAAUCUGCCACAAAAAUUGAAACCAUCUUCGGAUGCAGCGGCGGCAGCCUUCGGUGGUGCGAUAGCGCCAACGUUCUCAACUAUGACACGCAAAACGCGUGCUCCGUUGAAUGGAGUUUAUCAUG, at most -4.2.
Consider GGAUCUUCUCGAUCUAACAAAAAAGACAAAUCUGCCACAAAACUUGAGAGCAUCUUCGGAUGCAGAGGCGGCAGCCUUCGGUGGCGCGAUAGCGCCAACGUUCUCAACUAUGACAGGCAAAACGCGUGCUCCGUUGAAUGGAGUUUAUCAUG, for which the “polymerase ribozyme fitness (log ratio)” value was -3.99.
As to GGAUCUUCUCGAUCUAACAAAAAAGACAAAUCUGCCACAAAACUUGAAAGCAUCUUCGGAUGCAGAGACGGCAGCCUUCGGUGGCUCGAUAGCGCCAACGUUCUCAACUAUGACACGCAAAACGCGUGCUCAGUUGAAUGGAGUUUAUCAUG, the “polymerase ribozyme fitness (log ratio)” value was at most -4.2.
As for GGAUCUUCUCGAUCUAACAAAAAAGACAAAUCUGCCACAAAACUUGAGAGCAUUUUCGGAUGCAGAGGCGGCAGCCUUCGGUGGCGCGAUAGCGCCAACGUUCUCAACUAUGACACACAAAACGCGUGCUCCGUUGAAUGGAGUUUAUCAUG, the “polymerase ribozyme fitness (log ratio)” value was at most -4.2.
